Results taken from PMC5424357.

Experiments:
Assay in all cases: purified protein
Conditions in all cases: optimal conditions (optimum pH 8.0, 30 °C), substrate range stated 0.2–2.4 mM
[1] = test system: COC(=O)[C@@H](C)Oc1ccc(Oc2ncc(C(F)(F)F)cc2Cl)cc1
[2] = test system: C[C@@H](Oc1ccc(Oc2cnc3cc(Cl)ccc3n2)cc1)C(=O)OCC1CCCO1
[3] = test system: CCOC(=O)[C@@H](C)Oc1ccc(Oc2nc3ccc(Cl)cc3o2)cc1
[4] = test system: CCCCOC(=O)[C@@H](C)Oc1ccc(Oc2ccc(C#N)cc2F)cc1
[5] = test system: C#CCOC(=O)[C@@H](C)Oc1ccc(Oc2ncc(Cl)cc2F)cc1

Substance: QpeH (Pseudomonas sp.)
- Km [1]: 113.9 ± 3.8 µM
- kcat [1]: 67.4 ± 2.6 s⁻¹
- kcat/Km [1]: 590000 ± 40000 M⁻¹ s⁻¹
- Km [2]: 29.5 ± 2.7 µM
- kcat [2]: 146 ± 3.3 s⁻¹
- kcat/Km [2]: 4.96e+06 ± 90000 M⁻¹ s⁻¹
- Km [3]: 26.9 ± 4.3 µM
- kcat [3]: 162 ± 3.4 s⁻¹
- kcat/Km [3]: 6.01e+06 ± 50000 M⁻¹ s⁻¹
- Km [4]: 158.2 ± 3.5 µM
- kcat [4]: 41.1 ± 4.1 s⁻¹
- kcat/Km [4]: 260000 ± 30000 M⁻¹ s⁻¹
- Km [5]: 174.0 ± 4.2 µM
- kcat [5]: 37.1 ± 2.9 s⁻¹
- kcat/Km [5]: 210000 ± 20000 M⁻¹ s⁻¹
